Molecular target: Respiratory syncytial virus fusion (F) glycoprotein (respiratory syncytial virus, strain rA2-mK+ (parent strain A2))
Experiment: cryo-EM structure

## Respiratory syncytial virus fusion (F) glycoprotein (natural protein)
  stoichiometry N: 3
